Our source for the binding result and HDAC activity associated with the GST pull-down from GST-HDAC4 depleted lysate against GST depleted lysate (fold reduction) values is patent publication US20030143712A1 (J DAVID GLADSTONE INSTITUTES, published 2003).

The target of one data set is endogenous HDAC2 (UniProt Q92769 1-488). Nature of the data set: GST pull-down from SupT1 cell extracts, western blot.
The target in the next data set is endogenous HDAC1 (UniProt Q13547 1-482). Described as above.
Chain of endogenous HDAC1 (Q13547 whole entry): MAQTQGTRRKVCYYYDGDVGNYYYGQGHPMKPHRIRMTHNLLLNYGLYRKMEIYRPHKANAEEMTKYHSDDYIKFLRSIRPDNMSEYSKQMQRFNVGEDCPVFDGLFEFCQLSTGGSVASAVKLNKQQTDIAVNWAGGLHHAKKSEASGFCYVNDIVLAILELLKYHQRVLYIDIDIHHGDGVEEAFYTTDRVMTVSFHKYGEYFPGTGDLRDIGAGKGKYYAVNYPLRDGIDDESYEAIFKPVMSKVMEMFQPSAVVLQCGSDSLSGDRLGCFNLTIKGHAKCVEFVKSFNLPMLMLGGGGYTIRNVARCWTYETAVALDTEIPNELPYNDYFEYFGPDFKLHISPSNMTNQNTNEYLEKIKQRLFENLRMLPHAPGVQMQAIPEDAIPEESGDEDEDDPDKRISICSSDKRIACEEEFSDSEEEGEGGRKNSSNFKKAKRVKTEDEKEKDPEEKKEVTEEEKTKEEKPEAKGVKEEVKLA
For the next data set, the target named is T1, endogenous HDAC3, O15379.
T1 chain: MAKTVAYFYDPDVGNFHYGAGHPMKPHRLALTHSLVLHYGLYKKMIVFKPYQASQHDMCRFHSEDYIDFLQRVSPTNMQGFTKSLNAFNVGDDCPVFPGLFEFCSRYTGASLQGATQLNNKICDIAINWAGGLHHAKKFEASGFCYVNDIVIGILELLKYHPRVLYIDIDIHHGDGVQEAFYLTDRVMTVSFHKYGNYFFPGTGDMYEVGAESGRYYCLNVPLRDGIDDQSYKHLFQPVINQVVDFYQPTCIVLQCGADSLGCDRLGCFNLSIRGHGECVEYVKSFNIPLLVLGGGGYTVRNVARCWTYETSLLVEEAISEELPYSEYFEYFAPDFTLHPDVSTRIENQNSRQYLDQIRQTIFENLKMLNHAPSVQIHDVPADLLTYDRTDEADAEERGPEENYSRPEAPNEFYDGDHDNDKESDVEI

Chain of endogenous HDAC2 (Q92769 whole entry): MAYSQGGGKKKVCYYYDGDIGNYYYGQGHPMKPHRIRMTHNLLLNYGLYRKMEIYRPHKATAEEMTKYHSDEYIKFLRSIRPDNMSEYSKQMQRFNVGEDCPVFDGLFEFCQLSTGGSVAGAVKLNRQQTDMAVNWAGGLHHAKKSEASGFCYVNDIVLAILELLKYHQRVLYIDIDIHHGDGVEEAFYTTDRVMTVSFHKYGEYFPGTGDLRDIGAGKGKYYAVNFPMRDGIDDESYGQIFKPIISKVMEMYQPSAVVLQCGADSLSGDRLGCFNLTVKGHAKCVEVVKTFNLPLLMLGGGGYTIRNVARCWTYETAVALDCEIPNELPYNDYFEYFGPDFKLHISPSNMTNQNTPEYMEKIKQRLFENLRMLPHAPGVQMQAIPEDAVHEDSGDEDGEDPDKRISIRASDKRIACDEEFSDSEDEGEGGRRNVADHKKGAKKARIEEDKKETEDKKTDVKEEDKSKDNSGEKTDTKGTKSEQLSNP
Method for endogenous HDAC1: (§1) After incubation for 3 hours at 4° C. with rocking, reactions were washed three times in IPLS, three times in the same buffer but at 1 M NaCl, and two times in HD buffer (Fischle et al., supra). Pulldown reactions were split, and either processed for histone deacetylase activity assays or for western blotting. For pulldown reactions with ³⁵S-labeled proteins, cDNAs were transcribed and translated with the TNT reticulocyte system (Promega). The labeling reaction (5 μl) was incubated with GST fusion proteins in a total volume of 200 μl of GST buffer (20 mM Tris-HCl, pH 8.0, 150 mM KCl, 5 mM DTT, 2 mM EDTA, 10% glycerol, 0.5% non fat dry milk, 0.1% NP-40) for 1 h at 4° C. with rocking. Reactions were washed five times in the same buffer, and bound proteins were resolved on denaturing SDS-PAGE gels for analysis by autoradiography.
(§2) After extensive washing, the bound material was tested for HDAC activity.
Method for endogenous HDAC2: as §1, §2

B1: GST-HDAC7(aa 438-912) (enzyme)
chain: QGGHRPLSRAQSSPAAPASLSAPEPASQARVLSSSETPARTLPFTTGLIYDSVMLKHQCSCGDNSRHPEHAGRIQSIWSRLQERGLRSQCECLRGRKASLEELQSVHSERHVLLYGTNPLSRLKLDNGKLAGLLAQRMFVMLPCGGVGVDTDTIWNELHSSNAARWAAGSVTDLAFKVASRELKNGFAVVRPPGHHADHSTAMGFCFFNSVAIACRQLQQQSKASKILIVDWDVHHGNGTQQTFYQDPSVLYISLHRHDDGNFFPGSGAVDEVGAGSGEGFNVNVAWAGGLDPPMGDPEYLAAFRIVVMPIAREFSPDLVLVSAGFDAAEGHPAPLGGYHVSAKCFGYMTQQLMNLAGGAVVLALEGGHDLTAICDASEACVAALLGNRVDPLSEEGWKQKPNLNAIRSLEAVIRVHSKYWGCMQRLASCPDSWVPRVPGADKEEVEAVTALASLSVGILAEDRPSEQLVEEEEP
notes: also called active GST-HDAC7; not shown: glutathione-S-transferase (GST) of the pGEX4T1 vector (Pharmacia), N-terminal fusion partner
Consider B1, for which the binding result in the data set with endogenous HDAC2 and with endogenous HDAC1 was “no binding” in each case. The HDAC activity associated with the GST pull-down from GST-HDAC4 depleted lysate against GST depleted lysate (fold reduction) with endogenous HDAC3, O15379 worked out at 3.
